The target in this assay is T1, Heat shock transcription factor-1 (HSF-1) (human (endogenous in HCT-116)), Q00613.
T1 chain: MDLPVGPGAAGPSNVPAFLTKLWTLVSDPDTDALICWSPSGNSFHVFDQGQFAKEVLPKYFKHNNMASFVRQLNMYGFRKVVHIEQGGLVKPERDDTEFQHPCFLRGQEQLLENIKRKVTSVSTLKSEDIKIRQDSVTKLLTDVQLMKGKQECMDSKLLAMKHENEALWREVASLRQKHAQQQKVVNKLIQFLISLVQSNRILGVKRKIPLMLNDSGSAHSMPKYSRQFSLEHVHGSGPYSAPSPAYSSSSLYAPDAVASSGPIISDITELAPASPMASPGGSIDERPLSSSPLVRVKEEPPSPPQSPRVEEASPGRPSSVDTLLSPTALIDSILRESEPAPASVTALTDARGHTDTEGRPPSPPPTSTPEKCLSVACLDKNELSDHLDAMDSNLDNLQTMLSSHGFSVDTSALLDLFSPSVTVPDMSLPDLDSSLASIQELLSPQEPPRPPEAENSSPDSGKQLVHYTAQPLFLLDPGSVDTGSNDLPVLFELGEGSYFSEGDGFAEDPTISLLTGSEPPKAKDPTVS
The assay is described as follows: cross-linking; HCT-116 cell lysates (control, heat shock, vitexin-treated); 10 ug protein with 2 mM glutaraldehyde, room temperature, 30 min, stopped with lysine; SDS-PAGE and anti-HSF-1 blot; vitexin treatment said to inhibit oligomerization. The settings on record: remark: other sources report otherwise.

B1: Heat shock transcription factor-1 (HSF-1), Q00613 1-529 (natural protein)
chain: T1 chain
For orientation: stoichiometry N means a count of units in the complex or per binding partner. As for B1, the stoichiometry N came out at 3.

For the origin of these results see publication PMC5762521.
